The values that follow are results of earlier work, collected in PMC4854875.

The target of the series is UBE2T (Homo sapiens) (UniProt Q9NPD8).
Chain of UniProt Q9NPD8 (Q9NPD8 whole entry): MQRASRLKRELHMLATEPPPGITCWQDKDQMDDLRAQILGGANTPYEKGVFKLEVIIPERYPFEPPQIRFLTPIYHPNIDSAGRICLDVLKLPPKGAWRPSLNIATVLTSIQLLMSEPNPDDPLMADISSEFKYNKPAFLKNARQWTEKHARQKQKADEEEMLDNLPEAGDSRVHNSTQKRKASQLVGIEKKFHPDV

What is called Kd is the equilibrium constant for the complex coming apart. For the substance FANCL (from UniProt Q9NW38), the equilibrium dissociation constant (Kd) was 454 nM.
